Ends that are not written are not given here.
How the values were obtained:
[1] = target: Trastuzumab with E5 Ecoil peptides fused at the C-termini of heavy and light chains (TZM-E5); assay: SEC-MALS; UPLC-SEC-MALS; TZM-Ex mixed with Kx-mRFP at 1:4 molar ratio (2 nmol + 8 nmol), 45 min at room temperature; BEH200 column, 0.2 M potassium phosphate, 0.2 M potassium chloride, 0.02% Tween-20, pH 7.0, 30 °C
[2] = target: Trastuzumab with E5 Ecoil peptides fused at the C-termini of heavy and light chains (TZM-E5)

Row | Molecule | stoichiometry N (K5-mRFP per TZM-E5) [1] | tumor fluorescence (total radiant efficiency, area under the curve 3-336 h) after intravenous injection of the preformed TZM-E5/K5-CF750 complex in the SKOV3 xenograft mouse model ([p/s] × h /[uW/cm^2]) [2]
1 | K5 Kcoil peptide fused to the N-terminus of monomeric red fluorescent protein (K5-mRFP) (designed binder) | 4 | –
2 | KVSALKEKVSALKEKVSALKEKVSALKEKVSALKEGGC(CF750 maleimide) [K5 Kcoil peptide (KVSALKE)5-GGC conjugated to CF750 maleimide near-infrared dye (K5-CF750)] | – | 4.4e+13
